Data set [1] concerns the target T1, MBP-Rv3124-His6 (MoaR1) (Mycobacterium tuberculosis (gDNA; strain H37Rv?)) (UniProt O05797).
T1 sequence: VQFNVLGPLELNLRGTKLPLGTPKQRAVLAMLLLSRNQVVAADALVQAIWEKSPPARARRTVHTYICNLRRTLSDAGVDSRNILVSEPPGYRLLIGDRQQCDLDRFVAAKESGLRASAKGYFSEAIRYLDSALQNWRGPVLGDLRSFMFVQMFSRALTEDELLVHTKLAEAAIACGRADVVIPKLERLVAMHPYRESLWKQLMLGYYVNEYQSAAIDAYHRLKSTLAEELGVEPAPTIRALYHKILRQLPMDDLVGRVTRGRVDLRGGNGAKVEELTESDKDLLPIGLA
The experiment in a line: competition.

In data set [2] the target is T1, MBP-Rv3124-His6 (MoaR1) (Mycobacterium tuberculosis (gDNA; strain H37Rv?)). The experiment in a line: EMSA. Background: In EMSA bound probe runs differently from free probe, usually more slowly.

On to “ATGGAGCTACCATATCAGGCAGCGTAGGCGTACTCATTTTCCTATCATCTTTTCGATCCTCCACTTTGGACGCAGTCGGTTAGAGCGCCTCAAGAGAGTTTCGTACAAGGGTTAACTAACAATCGTTACCGAAATGCATCGGCGCATCGTGGCGCAGCGCATGAGCCTGCGTTTATGGCGCGTTGTTAGGGCGGAATCCGACCACTCATGTGCGAGCTTTCGTT (double strand) [Rv3109pro (222 bp)]”, for which the binding entry in data set [1] and in data set [2] was “binds” each time.
